Data on two molecules can be found in patent publication US20230285589A1, “LIPOSOME COMPLEX FOR CANCER TREATMENT, COMPRISING NOVEL CD47 BINDER AND POLYNUCLEOTIDE” (priority 2020, published 2023).

Assay [1] can be described thus: 5'-nucleotidase preferred substrate (Km), dTMP. It is filed as biochemical. Conditions: according to Table 4.
The next assay has as its target recombinant CD47 protein (Homo sapiens, UniProt Q08722). As to the kind of experiment: SPR, CD47 conjugated to CM5 chip. The settings on record: 250 RU CD47, 1:1 binding model. The method, then:
Specifically, the recombinant CD47 protein was conjugated to the surface of the CM5 chip by a target SPR reaction of 250 RU through an EDC-NHS reaction to be used, and for HBS-P, the sensogram obtained through a process of association for 3 minutes and dissociation for 10 minutes at a flow rate of 30 μL/minutes was analyzed with the BiaEvaluation software using a 1:1 binding model and global fitting.
On the technique in general: In SPR one partner is held on a chip, and binding of the other changes the refractive index at the surface.

Sequence of recombinant CD47 protein (Q08722 19-323): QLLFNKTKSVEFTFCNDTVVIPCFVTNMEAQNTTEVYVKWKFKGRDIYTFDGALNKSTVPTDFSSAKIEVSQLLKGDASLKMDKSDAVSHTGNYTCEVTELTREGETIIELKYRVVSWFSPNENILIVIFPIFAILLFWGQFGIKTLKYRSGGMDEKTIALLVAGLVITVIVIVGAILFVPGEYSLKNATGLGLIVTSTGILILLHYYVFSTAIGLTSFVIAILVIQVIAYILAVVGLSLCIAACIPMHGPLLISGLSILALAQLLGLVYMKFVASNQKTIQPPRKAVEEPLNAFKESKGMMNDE

B1: NT5M: Human mitochondrial 5′-deoxyribonucleotidase (SEQ ID NO: 32) (protein)
chain: MGGRALRVLVDMDGVLADFEGGFLRKFRARFPDQPFIALEDRRGFWVSEQYGRLRPGLSEKAISIWESKNFFFELEPLPGAVEAVKEMASLQNTDVFICTSPIKMFKYCPYEKYAWVEKYFGPDFLEQIVLTRDKTVVSADLLIDDRPDITGAEPTPSWEHVLFTACHNQHLQLQPPRRRLHSWADDWKAILDSKRPC
modifications: NT5M
Turning to B1, the “affinity for dTMP, times lower compared to T001” value in assay [1] turned out to be 30 times.

B2: SV4: CD47 binder of SEQ ID NO: 2; SV1 with lysines at positions 11 and 104 substituted with leucine (protein)
chain: MEEELQIIQPDLSVSVAAGESAILHCTITSLFPVGPIQWFRGAGPARVLIYNQRQGPFPRVTTVSETTKRENMDFSISISNITPADAGTYYCIKFRKGSPDTEFLSGAGTELSVRAKPS
modifications: CD47 binder SV4
As for B2, in the assay with recombinant CD47 protein, the ka was 164000 M⁻¹ s⁻¹ and the kd is 0.000275 s⁻¹.
